The values below come from US20080050387A1 (published 2008).

To fix the notation:
B1: human checkpoint protein hRad9, full length (other)
chain: MKCLVTGGNVKVLGKAVHSLSRIGDELYLEPLEDGLSLRTVNSSRSAYACFLFAPLFFQQYQAATPGQDLLRCKILMKSFLSVFRSLAMLEKTVEKCCISLNGRSSRLVVQLHCKFGVRKTHNLSFQDCESLQAVFDPASCPHMLRAPARVLGEAVLPFSPALAEVTLGIGRGRRVILRSYHEEEADSTAKAMVTEMCLGEEDFQQLQAQEGVAITFCLKEFRGLLSFAESANLNLSIHFDAPGRPAIFTIKDSLLDGHFVLATLSDTDSHSQDLGSPERHQPVPQLQAHSTPHPDDFANDDIDSYMIAMETTIGNEGSRVLPSISLSPGPQPPKSPGPHSEEEDEAEPSTVPGTPPPKKFRSLFFGSILAPVRSPQGPSPVLAEDSEGEG
notes: Used as GST-hRad9 on beads, as GAL4 DBD fusion (mammalian two-hybrid), as Flag-hRad9 in 293T cells and as endogenous hRad9 of CWR22R cells; also called FL-hRad9; GST-hRad9
B4: AR DNA-binding domain (AR DBD) (receptor)
chain: KTCLICGDEASGCHYGALTCGSCKVFFKRAAEGKQKYLCASRNDCTIDKFRRKNCPSCRLRKCYEAG
notes: also called GAL4-AR-DBD

Assay [1] deals with T1, AR N-terminus, full length ARN (ARN1-556) (human, UniProt P10275 1-557).
T1 sequence: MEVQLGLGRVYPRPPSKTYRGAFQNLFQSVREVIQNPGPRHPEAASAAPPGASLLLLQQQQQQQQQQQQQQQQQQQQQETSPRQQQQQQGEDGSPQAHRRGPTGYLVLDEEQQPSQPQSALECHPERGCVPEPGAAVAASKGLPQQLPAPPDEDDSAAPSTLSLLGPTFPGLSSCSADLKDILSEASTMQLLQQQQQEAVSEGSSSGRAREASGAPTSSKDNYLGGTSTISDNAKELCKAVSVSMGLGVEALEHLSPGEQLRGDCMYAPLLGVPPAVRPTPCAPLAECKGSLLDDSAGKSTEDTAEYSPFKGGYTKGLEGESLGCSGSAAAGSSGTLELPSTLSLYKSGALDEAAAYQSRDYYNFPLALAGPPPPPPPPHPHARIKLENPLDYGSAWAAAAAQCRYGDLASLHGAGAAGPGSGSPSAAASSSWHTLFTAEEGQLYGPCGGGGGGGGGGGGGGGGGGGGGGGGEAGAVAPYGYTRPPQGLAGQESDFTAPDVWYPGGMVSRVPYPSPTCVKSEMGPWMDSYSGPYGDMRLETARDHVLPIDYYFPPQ
Put plainly: GST pull-down: GST-hRad9 with 35S-labeled AR domains.

The target in assay [2] is T2, VP16-AR containing the residues 37 to 919 (human, UniProt P10275 37-920).
T2 construct: also called pCMX-VP16-AR; full length AR fused to VP16
T2 sequence: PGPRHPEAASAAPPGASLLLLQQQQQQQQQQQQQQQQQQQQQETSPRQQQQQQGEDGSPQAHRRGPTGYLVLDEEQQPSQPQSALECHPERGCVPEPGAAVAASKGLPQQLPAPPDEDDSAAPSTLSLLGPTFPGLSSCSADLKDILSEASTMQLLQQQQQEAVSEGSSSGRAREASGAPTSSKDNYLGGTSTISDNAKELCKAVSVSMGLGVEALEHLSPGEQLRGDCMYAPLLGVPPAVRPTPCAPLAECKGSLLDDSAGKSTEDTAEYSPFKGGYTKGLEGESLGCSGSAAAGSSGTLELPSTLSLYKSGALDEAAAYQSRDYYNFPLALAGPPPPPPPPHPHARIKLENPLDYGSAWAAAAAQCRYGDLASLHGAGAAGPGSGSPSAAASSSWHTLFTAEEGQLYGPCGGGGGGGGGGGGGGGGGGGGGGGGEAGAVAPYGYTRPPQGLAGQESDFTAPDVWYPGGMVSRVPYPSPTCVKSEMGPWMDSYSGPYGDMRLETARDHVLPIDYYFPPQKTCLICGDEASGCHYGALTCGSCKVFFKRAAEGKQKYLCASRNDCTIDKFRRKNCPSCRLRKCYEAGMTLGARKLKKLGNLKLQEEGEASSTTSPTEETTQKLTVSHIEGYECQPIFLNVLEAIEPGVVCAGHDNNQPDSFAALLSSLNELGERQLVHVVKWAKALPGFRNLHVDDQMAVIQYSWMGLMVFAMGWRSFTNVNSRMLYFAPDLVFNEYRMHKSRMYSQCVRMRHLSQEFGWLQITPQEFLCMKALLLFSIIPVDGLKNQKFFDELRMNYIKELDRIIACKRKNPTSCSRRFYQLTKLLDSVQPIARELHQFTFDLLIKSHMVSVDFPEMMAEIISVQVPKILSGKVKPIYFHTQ
The experiment in a line: mammalian two-hybrid in PC-3 cells, GAL4 DBD-FL-hRad9 + VP16-AR; inhibited by hydroxyflutamide.

Assay [3] deals with T3, ARA67 clone of the CytoTrap screen, amino acids 20-585 of PAT1 (pMyr-ARA67) (Homo sapiens, UniProt Q92624 20-585).
T3 construct: The clone matched the DNA encoding aa 20-585 of PAT1 at 99.6% identity; also called pMyr-ARA67/PAT1
T3 sequence: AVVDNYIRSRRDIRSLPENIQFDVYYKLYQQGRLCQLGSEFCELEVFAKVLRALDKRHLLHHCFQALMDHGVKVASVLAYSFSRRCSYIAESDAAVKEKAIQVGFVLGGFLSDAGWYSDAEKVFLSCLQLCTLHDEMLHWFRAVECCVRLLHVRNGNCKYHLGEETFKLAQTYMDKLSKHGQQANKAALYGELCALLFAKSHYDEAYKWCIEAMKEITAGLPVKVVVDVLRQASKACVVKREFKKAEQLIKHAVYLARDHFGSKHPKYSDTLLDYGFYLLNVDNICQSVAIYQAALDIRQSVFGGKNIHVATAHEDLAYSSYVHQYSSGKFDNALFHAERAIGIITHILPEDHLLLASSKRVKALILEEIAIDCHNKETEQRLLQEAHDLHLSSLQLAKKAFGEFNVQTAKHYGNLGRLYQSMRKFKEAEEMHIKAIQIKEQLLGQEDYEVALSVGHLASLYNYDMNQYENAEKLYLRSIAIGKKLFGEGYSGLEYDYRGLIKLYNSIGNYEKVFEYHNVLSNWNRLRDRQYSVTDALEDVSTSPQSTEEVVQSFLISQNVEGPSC
Put plainly: CytoTrap Sos yeast two-hybrid, growth of cdc25H on SD/Gal(-LU) at 37° C.
Procedure: The bait and library constructs were co-transformed into yeast strain cdc25H. […] Only the clones that grow out on SD/Gal (−LU) plates but not on SD/Glu (−LU) plates at 37° C. are interaction positive ones.

The next assay concerns the target T4, AR DBD-LBD (human, UniProt P10275 557-920).
T4 sequence: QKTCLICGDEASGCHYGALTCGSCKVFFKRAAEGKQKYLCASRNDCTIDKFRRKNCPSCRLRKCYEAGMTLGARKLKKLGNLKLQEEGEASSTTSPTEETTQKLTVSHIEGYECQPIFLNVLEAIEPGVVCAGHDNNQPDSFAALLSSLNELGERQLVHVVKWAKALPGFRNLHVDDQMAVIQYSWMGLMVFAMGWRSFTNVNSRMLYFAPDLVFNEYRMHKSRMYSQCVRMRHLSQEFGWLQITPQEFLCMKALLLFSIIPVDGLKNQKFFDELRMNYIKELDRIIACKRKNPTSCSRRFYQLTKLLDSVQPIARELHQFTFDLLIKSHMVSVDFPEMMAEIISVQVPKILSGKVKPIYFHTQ
The experiment in a line: cell-based or functional assay.

For a further assay, the target named is T5, vitamin D receptor (VDR) (UniProt P11473 1-427).
T5 construct: also called VP16-VDR; VP 16-VDR
T5 sequence: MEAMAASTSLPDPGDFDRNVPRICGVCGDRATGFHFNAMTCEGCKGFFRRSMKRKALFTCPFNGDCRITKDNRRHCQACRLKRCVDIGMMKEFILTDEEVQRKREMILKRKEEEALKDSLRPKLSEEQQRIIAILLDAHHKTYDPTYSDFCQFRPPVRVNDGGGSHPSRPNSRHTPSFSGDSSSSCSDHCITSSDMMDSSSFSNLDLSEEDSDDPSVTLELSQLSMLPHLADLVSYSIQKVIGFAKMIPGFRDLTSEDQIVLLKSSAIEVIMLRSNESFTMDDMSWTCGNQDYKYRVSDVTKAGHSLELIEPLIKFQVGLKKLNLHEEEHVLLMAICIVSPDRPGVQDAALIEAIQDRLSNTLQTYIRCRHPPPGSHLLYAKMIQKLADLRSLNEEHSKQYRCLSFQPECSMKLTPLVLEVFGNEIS
The experiment in a line: mammalian two-hybrid in PC-3 cells, pM-f-hRad9 + VP16-VDR.

For assay [4], the target named is T6, estrogen receptor α (ERα) (UniProt P03372 1-595).
T6 construct: also called VP16-ERα; ERcc
T6 sequence: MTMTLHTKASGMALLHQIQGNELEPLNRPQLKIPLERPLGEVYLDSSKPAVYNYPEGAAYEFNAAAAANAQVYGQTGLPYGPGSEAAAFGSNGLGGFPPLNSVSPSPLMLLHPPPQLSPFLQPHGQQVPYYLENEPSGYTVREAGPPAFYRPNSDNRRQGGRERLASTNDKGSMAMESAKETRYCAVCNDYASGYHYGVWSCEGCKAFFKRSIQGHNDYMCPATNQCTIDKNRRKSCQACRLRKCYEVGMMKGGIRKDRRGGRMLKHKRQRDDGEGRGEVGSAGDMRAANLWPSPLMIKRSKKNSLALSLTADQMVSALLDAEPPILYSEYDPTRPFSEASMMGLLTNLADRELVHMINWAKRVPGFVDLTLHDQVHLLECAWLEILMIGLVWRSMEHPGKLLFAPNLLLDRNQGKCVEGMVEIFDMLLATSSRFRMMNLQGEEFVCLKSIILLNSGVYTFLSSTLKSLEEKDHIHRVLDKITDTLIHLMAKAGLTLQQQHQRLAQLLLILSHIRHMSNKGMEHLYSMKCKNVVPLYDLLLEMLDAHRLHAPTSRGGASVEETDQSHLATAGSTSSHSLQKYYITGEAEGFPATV
The experiment in a line: mammalian two-hybrid in PC-3 cells, pM-f-hRad9 + VP16-ERα, in the presence of estrogen.

For assay [5], the target named is B4. Put plainly: yeast two-hybrid (AH109), GAL4-AR-DBD + f-hRad9 fused to an activation domain, 10 nM DHT.
In assay [6] the target is B1. Put plainly: GST pull-down: GST-hRad9 with 35S-labeled AR domains.

In the case of B1, the binding result in assay [1] is “no binding”; in assay [2], “binds”.

B2: testicular receptor 2 (TR2) (receptor)
chain: MATIEEIAHQIIEQQMGEIVTEQQTGQKIQIVTALDHNTQGKQFILTNHDGSTPSKVILARQDSTPGKVFLTTPDAAGVNQLFFTTPDLSAQHLQLLTDNSPDQGPNKVFDLCVVCGDKASGRHYGAVTCEGCKGFFKRSIRKNLVYSCRGSKDCIINKHHRNRCQYCRLQRCIAFGMKQDSVQCERKPIEVSREKSSNCAASTEKIYIRKDLRSPLTATPTFVTDSESTRSTGLLDSGMFMNIHPSGVKTESAVLMTSDKAESCQGDLSTLANVVTSLANLGKTKDLSQNSNEMSMIESLSNDDTSLCEFQEMQTNGDVSRAFDTLAKALNPGESTACQSSVAGMEGSVHLITGDSSINYTEKEGPLLSDSHVAFRLTMPSPMPEYLNVHYIGESASRLLFLSMHWALSIPSFQALGQENSISLVKAYWNELFTLGLAQCWQVMNVATILATFVNCLHNSLQQDAKVIAALIHFTRRAITDL
notes: hSos fusion (pSos-TR2) in yeast; also called pSos-TR2
B2: the binding result in assay [3] is “no binding”.

B3: f-hRad9, fragment of hRad9 isolated from yeast (aa 327-391) (other)
chain: LSPGPQPPKSPGPHSEEEDEAEPSTVPGTPPPKKFRSLFFGSILAPVRSPQGPSPVLAEDSEGEG
Consider B3, for which, in the assay with AR DBD-LBD, the “reporter activity (yeast two-hybrid, liquid β-gal assay, 10 nM DHT)” value was 10 fold. Moreover, the binding result (with vitamin D receptor (VDR); in assay [4]; in assay [5]) was “no binding” in each case.

Turning to B4, the binding result in assay [6] is “no binding”.
